Experimental data taken from PMC9896810.

Legend:
[1] = molecular target: T1, C3G full-length wild type (human, isoform a, residues 4-1077) (human) (UniProt Q13905)
T1 sequence: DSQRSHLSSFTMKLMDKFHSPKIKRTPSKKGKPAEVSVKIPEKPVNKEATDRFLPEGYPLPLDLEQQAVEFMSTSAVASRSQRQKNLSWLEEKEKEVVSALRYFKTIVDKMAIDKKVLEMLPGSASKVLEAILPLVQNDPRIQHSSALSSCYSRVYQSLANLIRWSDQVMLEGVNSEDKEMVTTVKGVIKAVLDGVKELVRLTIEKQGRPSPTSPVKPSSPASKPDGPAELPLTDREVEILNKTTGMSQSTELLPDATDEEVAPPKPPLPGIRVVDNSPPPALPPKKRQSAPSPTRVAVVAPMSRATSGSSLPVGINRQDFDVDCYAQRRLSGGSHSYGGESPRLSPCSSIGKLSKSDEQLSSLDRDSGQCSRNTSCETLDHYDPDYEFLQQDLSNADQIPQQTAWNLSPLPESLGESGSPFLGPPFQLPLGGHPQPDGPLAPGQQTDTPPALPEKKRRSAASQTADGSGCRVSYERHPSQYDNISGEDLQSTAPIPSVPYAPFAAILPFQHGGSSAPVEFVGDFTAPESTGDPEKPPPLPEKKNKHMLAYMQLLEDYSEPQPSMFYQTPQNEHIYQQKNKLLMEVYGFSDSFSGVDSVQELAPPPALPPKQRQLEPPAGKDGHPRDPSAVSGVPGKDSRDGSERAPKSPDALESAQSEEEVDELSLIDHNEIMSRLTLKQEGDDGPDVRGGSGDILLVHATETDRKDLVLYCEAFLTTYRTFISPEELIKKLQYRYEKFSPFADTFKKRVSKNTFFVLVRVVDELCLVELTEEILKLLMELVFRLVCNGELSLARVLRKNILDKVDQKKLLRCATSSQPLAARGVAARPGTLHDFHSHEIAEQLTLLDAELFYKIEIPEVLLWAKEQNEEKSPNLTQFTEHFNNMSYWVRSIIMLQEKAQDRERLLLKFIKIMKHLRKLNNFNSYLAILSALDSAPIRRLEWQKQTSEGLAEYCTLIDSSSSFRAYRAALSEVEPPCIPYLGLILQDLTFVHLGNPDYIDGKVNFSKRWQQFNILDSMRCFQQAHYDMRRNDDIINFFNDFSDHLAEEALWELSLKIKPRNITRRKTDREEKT

[2] = molecular target: T2, Src-phosphorylated C3G (pC3G), wild type (human) (UniProt Q13905)
T2 sequence (chain, phosphotyrosines (phosphorylated in vitro by Src; sites not stated)): T1 sequence

[3] = molecular target: C3G P1 P1 (Homo sapiens) (UniProt Q13905); conditions: cited from earlier work
[4] = molecular target: the P1 (C3G-PAAA) and P2 (C3G-APAA) motifs; assay: ITC; single-PRM mutants of C3G in the cell titrated with full-length CrkL or CrkL-SH3N; 25 °C; 1:1 model in SEDPHAT; N is the competent fraction of C3G

Sequence of CrkL, full-length (human) (P46109 whole entry): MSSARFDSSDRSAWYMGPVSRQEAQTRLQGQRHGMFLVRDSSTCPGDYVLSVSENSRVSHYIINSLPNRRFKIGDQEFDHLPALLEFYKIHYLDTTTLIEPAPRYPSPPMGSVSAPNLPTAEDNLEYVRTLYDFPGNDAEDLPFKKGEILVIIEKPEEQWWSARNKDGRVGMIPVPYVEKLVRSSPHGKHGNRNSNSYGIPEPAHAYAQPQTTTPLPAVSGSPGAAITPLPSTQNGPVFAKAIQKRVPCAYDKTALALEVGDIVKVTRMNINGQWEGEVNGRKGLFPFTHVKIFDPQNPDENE
Sequence of CrkL (P46109 whole entry): as above

Row | Substance | AC50 of the dose-response activation of the GEF activity of C3G (1 µM) on Rap1b:mant-dGDP [1] [µM] | kmax of the dose-response activation of the GEF activity of C3G (1 µM) on Rap1b:mant-dGDP [1] [M⁻¹ s⁻¹] | AC50 of the dose-response activation of the GEF activity of pC3G (0.2 µM) on Rap1b:mant-dGDP [2] [µM] | kmax of the dose-response activation of the GEF activity of pC3G (0.2 µM) on Rap1b:mant-dGDP [2] [s^-1 µM^-1] | Kd [3] [µM] | stoichiometry N [4]
1 | CrkII-L-II chimera (from UniProt P46108-1 1-133; P46109 125-182; P46108-1 191-304) | 18.7 | 7900 | 1.6 | 0.03 |  | 
2 | CrkL (from UniProt P46109) |  |  |  |  | 2.8 | 
3 | CrkL, full-length (human) (from UniProt P46109 1-303) (natural protein) |  |  |  |  |  | 0.8 to 0.9
4 | CrkL-II-L chimera (from UniProt P46109 1-124; P46108-1 134-191; P46109 183-303) | 16.7 | 7900 | 2.3 | 0.0336 |  | 
